Our source for the IC50 values is US20070202045A1.

The experiment has as its target Rabbit SA (rabbit) (UniProt P49065). The experiment is described as follows: competition ELISA (SA08b binding to rabbit albumin). A general note: In an ELISA, binding on a coated surface is turned into a signal by an enzyme label.

Sequence of Rabbit SA (rabbit) (P49065 25-608): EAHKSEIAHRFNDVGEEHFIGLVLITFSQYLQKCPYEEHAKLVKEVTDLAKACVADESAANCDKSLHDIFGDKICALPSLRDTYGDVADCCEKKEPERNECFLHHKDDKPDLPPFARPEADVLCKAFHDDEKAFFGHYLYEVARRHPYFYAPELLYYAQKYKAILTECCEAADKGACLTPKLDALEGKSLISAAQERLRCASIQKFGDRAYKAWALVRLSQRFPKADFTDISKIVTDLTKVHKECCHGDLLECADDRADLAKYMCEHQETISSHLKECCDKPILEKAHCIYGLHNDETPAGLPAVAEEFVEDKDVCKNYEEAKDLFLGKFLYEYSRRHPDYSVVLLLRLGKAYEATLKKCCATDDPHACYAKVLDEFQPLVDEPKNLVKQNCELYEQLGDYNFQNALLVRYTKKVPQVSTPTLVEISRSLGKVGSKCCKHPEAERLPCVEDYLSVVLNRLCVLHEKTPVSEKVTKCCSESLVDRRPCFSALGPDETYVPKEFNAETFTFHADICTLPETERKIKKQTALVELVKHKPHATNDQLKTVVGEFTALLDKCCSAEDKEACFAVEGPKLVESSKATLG

One may read the IC50 as the concentration that inhibits the measured activity by half. Read a low IC50 as higher potency. dia4D5 returned a concentration for half-maximal inhibition (IC50) of 10 nM.
